# Paper PMC6134094 (mBio, 2018)
# B1: ADI-15878 fragment antigen binding (Fab) (Fab, V domains shown)
# VH: QVQLVQSGVTLVQPGGSLRVSCAASGFTFSSYAMSWVRQAPGKGLEWVSAISGLGGSTYYADSVKGRFTISRDNSKNTLYLQMNSLRAEDTAVYYCAKDHRVWAAGYHFDYWGQGALVTVSS
# VL: DIVLTQSPSTLSASVGDRVTITCRASQSISSWLAWYQQKPGEAPKLLISDASSLESGVPSRFSGSGSGTEFTLTISSLQPDDFATYYCQQYYSSPTFGGGTKVEIK
# notes: also called ADI-15878 Fab
# Target: T1, cleaved Ebola virus (EBOV) glycoprotein GPCL (Ebola virus (Zaire ebolavirus), UniProt Q05320)
# T1 construct: copies: 3 + 3
# Assay: crystal structure
# Conditions: both partners purified
binder,measurement,value
B1,binding result,binds
